According to the supplement of paper PMC7125110:
± gives the standard error. Fewer inactive variants are shown than the library holds.

B1: glmS ribozyme (parent)
chain: AUAAAAGCGCCAGAACUACAGAAAUGUAGUUGACGAGGAGGAGGUUUAUCGAAUUUUCGGCGGAUGCCUCCAAA

Tests used:
Settings in all cases: with glucosamine-6-phosphate
[1] = variants of: B1; assay: self-cleavage kobs at 40 uM GlcN6P; higher = faster cleavage; RNA array
Method in brief: (§1)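 Barcoded ribozyme variants were transcribed in situ on sequenced MiSeq chips by E. coli RNA polymerase. At 37 °C, a hybridised Cy3 probe tracked them while glucosamine-6-phosphate (40 μM to 10 mM) in HEPES/KCl/Mg(OAc)2 buffer flowed in and tiles were imaged over ~14 h. Per-tile medians of signals normalised to baseline and to non-cleaving reference variants were fit to one- or two-exponential decays, giving kobs. kcat and KM came from weighted Michaelis–Menten fits across concentrations.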

[2] = variants of: B1; assay: self-cleavage kobs at 10000 uM GlcN6P; higher = faster cleavage; RNA array
Method in brief: as §1

[3] = variants of: B1; assay: self-cleavage kobs at 160 uM GlcN6P; higher = faster cleavage; RNA array
Method in brief: as §1

[4] = variants of: B1; assay: self-cleavage kobs at 640 uM GlcN6P; higher = faster cleavage; RNA array
Method in brief: as §1

[5] = variants of: B1; assay: self-cleavage kobs at 2500 uM GlcN6P; higher = faster cleavage; RNA array
Method in brief: as §1

Variant	self-cleavage kobs at 40 uM GlcN6P [1]	self-cleavage kobs at 10000 uM GlcN6P [2]	self-cleavage kobs at 160 uM GlcN6P [3]	self-cleavage kobs at 640 uM GlcN6P [4]	self-cleavage kobs at 2500 uM GlcN6P [5]
AUAAAAGCGCCAGAACUACAGAAAUGUAGUUGACGAGGCGGAGGUUUAUCGUAUUUUCGGCGGAUGCCUCUAAA [A39C A52U C71U]	< 1e-05 s⁻¹				
AUAAAAGAGCCAGAACUACAGAAAUGUAUUUGACGAGGAGGAGGUUUAUCGAAUUUUCGUCGGAUGCCUCCAAA [C8A G29U G60U]	< 1e-05 s⁻¹	< 1e-05 s⁻¹			
AUAAAAGCGGCAGAACUACAGAAAUGUAGUUGACGAGGAGGAGGUUUAUCGAAUGUUCGGCGGAUGCCUCCAAA [C10G U55G]	< 1e-05 s⁻¹				
AUAAAAGCUCCAGAACUACAGAAAUGUAGUUGACGAGGAGGAGGUUUAUCCAAUUUUCGGCGGAUGCCUCCAAA [G9U G51C]	< 1e-05 s⁻¹	< 1e-05 s⁻¹	< 1e-05 s⁻¹		
AUAAAAGCGCCAGAACUACAGAAAUGUAGUUUACGAGGAGGAUUUUUAUCGAAUUUUCGACGGAUGCCUCCAAA [G32U G43U G44U G60A]	< 1e-05 s⁻¹			< 1e-05 s⁻¹	< 1e-05 s⁻¹
AUAAAAGCUCCAGAACUACAGAAAUGUAGUUGACGAGGAGGAGGUUUAUCGAAUUUUCGGCGGAUGGCUCCAAA [G9U C67G]	< 1e-05 s⁻¹		< 1e-05 s⁻¹		< 1e-05 s⁻¹
AUAAAAGAGCCAGAGCUACAGAAAUGUAGUUGACGAGGAGGAGGUUUAUCGAAUUUUCGACGGAUGCCUCCAAA [C8A A15G G60A]	< 1e-05 s⁻¹			< 1e-05 s⁻¹	< 1e-05 s⁻¹
AUAAAAGCGCCAGAACUACAGAAAUGUAGUUGACGAGGAGGAGGUCUAUCGAAUUUUCGGCGUAUGCCUACAAA [U46C G63U C70A]	< 1e-05 s⁻¹				
AUAAAAGCGCCAGAACUACAGAAAUGUAGUUGACGAGGUGGAGGUUUAUCGAAUUUUCGGCGGAUACCUCCAAA [A39U G66A]	0.000403 ± 0.00015 s⁻¹	0.0134 ± 0.0056 s⁻¹	0.000797 ± 0.00024 s⁻¹	0.00167 ± 0.00076 s⁻¹	0.00655 ± 0.0022 s⁻¹
AUAAAAGCGCCGGAACUACAGAAAUGUAGUUGACGAGGAGGAGGUUUAUCGAAUUUUCGGCGAUUGCCUCCAAA [A12G G63A A64U]	< 1e-05 s⁻¹		< 1e-05 s⁻¹		< 1e-05 s⁻¹
AUAAAAGUGCCAGAACUACAGAAAUGUAGUUGACGAGGAGGAGGUUUAUCGAAUUUUCGGCGUAUGCCUCCAAA [C8U G63U]	< 1e-05 s⁻¹		< 1e-05 s⁻¹	< 1e-05 s⁻¹	
AUAAAAGCGCCAGAACUACAGAAAUGUAGUUGACGAGGCGGACGUUCACCGAAUUUUCGGCGGUAGCCUCCAAA [A39C G43C U47C U49C A64U U65A]	< 1e-05 s⁻¹				
AUAAAAGCGCCAAAACUACAGAAAUGUAGUUGAAGUGGAGGAGGUUUAUCGAAUUUUCGGCGGAUGCGUCCAAA [G13A C34A A36U C68G]	8.42e-05 ± 3e-05 s⁻¹	6.2e-05 ± 2.4e-05 s⁻¹			
AUAAAAGCGCCAGGACUACAGAAAUGUAGUUGAGGAGGAGGAGGUUUAUCGAAUUUUCGGCGGAUGCCUCCAAA [A14G C34G]	< 1e-05 s⁻¹	< 1e-05 s⁻¹	< 1e-05 s⁻¹		
AUAAAGGCGCCAGAACUACAGAAAUGUAGGUGACGAGGAGGAGGUUUAUCGAAAUUUCGGCGGAUGGCUCCAAA [A6G U30G U54A C67G]	< 1e-05 s⁻¹	< 1e-05 s⁻¹			
